Experimental findings from patent US7598352B2, “Method of identifying polypeptide monobodies which bind to target proteins and use thereof” (University of Rochester, priority 2000, dated 2009) are described below.

What all share (type): cell-based
Series [1] addresses T1, ERα-E (residues 297-554, the E domain of Estrogen Receptor α) (Homo sapiens, UniProt P03372, G400V).
T1 construct: ERα-E (residues 297-554, the E domain of Estrogen Receptor α); expressed in transfected cells; host or cells: Saccharomyces cerevisiae RFY206
T1 sequence (P03372 297-554 G400V): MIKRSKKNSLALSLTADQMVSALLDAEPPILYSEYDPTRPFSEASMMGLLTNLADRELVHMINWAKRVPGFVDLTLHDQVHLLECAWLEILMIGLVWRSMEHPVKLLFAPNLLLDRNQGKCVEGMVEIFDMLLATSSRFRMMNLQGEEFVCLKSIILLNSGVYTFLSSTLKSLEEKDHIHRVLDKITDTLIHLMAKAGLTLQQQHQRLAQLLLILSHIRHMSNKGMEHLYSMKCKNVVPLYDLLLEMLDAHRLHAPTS
The experiment in a line: Quantitative β-galactosidase yeast two-hybrid assay, ERα-E bait (F domain deleted) compared with ERα-EF. The note with it: for effect of deletion of the F domain on interaction with the ERα fragments: in the presence of E2, ERα-E vs ERα-EF, FIGS. 16A-C. Here is the method: (§1) Quantitative assays were performed as follows. The yeast strain RFY206 was (1) first transformed with pEGERα297-595 (or pEGERα297-554) and pSH18-34 and (2) subsequently with a derivative of the pYT45 plasmid encoding a particular monobody. Yeast cells were grown overnight at 30° C. in YC Glc-his-ura-trp media. The culture was then spun down, the media were discarded, and the cells were resuspended in YC Gal Raf-his-ura-trp media containing a ligand at a final cell density of 0.2 OD660 nm in a total volume of 175 μl in the wells of a deep 96-well plate. Ligands used were E2, ICI182,780, OHT, raloxifene, progesterone, estriol, diethylstilbestrol, and genistein. The ligand concentration was 1 μM except for genistein (10 μM). After incubating for six hours at 30° C. with shaking, 175 μl of β--galactosidase assay buffer (60 mM Na2HPO4, 40 mM NaH2PO4, 10 mM KCl, 1 mM MgSO4, 0.27% β-mercaptoethanol, 0.004% SDS, 4 mg/ml 2-nitrophenyl-β-D-[…], 50% Y-PER (Pierce)) was added to the culture, incubated at 30° C., then the reaction was stopped by adding 150 μl of 1M Na2CO3. After centrifugation, OD420 was measured and the β-galactosidase activity was calculated.
The affects of the F domain (residues 551-595) on interactions of monobodies with the LBD (the E domain) of ERα was tested. The β-galactosidase activity of cells containing a LexA-ERα E domain fusion protein and a monobody-activation domain fusion protein was compared to the β-galactosidase activity of cells containing LexA-ERα-EF and the same monobody-activation domain fusion protein (FIGS. 16A-E).

Series [2] concerns the target T2, ERα-EF (residues 297-595, the E and F domains of Estrogen Receptor α) (Homo sapiens, UniProt P03372, G400V).
T2 construct: expressed in transfected cells; host or cells: Saccharomyces cerevisiae RFY206 (mated with EGY48 for the survival screens)
T2 sequence (P03372 with tags, fused parts or gaps G400V): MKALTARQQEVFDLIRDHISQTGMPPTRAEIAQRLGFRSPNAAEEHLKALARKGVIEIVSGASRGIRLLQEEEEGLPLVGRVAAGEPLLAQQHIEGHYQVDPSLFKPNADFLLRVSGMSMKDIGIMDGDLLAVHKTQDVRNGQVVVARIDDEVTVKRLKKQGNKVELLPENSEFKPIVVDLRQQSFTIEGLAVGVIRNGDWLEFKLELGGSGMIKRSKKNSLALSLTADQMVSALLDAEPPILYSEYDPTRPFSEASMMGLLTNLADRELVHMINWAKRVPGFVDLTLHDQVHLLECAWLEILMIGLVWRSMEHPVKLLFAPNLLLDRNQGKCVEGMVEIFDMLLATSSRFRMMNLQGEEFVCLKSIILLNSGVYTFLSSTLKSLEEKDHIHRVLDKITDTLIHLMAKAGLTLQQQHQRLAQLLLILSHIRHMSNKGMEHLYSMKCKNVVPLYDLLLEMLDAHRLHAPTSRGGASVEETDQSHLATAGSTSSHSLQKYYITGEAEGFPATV
Put plainly: Quantitative β-galactosidase yeast two-hybrid assay, ERα-EF bait. As to conditions: for binding to different ERα-EF/agonist complexes: agonists E2, estriol, diethylstilbestrol, genistein, FIGS. 15A-D. On the procedure: as §1
The binding specificity of the monobodies toward different ERα-EF/ligand complexes was examined using quantitative β-galactosidase assays. It has been shown that the β-galactosidase activity correlates well with the interaction affinity between the bait and prey of the yeast two-hybrid system (Estojak et al., 1995), allowing an in vivo discrimination of interaction affinity. To minimize the effect of different ligands on the expression level and degradation of the LexA-ER fusion protein, β-galactosidase activity was determined after a short incubation period (6 hours) following the addition of a ligand and the initiation of monobody production. It was confirmed that yeast samples prepared in the presence and absence of ligands contained similar levels of ERα-EF protein (FIG. 14H).

Series [3] addresses T2, ERα-EF (residues 297-595, the E and F domains of Estrogen Receptor α). Put plainly: Yeast two-hybrid survival assay (LEU+ growth selection) of monobody clones. As to conditions: ligand ICI182,780, pYT45B3F7 library clones. An excerpt: Briefly, utilizing such a system, plasmids are constructed that encode two fusion proteins, the interaction of which is shown schematically in FIGS. 4A-B. The first fusion protein (also known as “bait”) contains the DNA-binding domain (e.g., LexA) fused to a known protein, in this case a nuclear receptor or fragment thereof which includes a functional ligand binding domain (NR-LBD). Any of the above-identified nuclear receptors (or fragments thereof which include a functional ligand binding domain) can be used as the bait protein or polypeptide. The second fusion protein (also known as “prey”) includes an activation domain (e.g., B42) fused to an unknown protein, in this case a polypeptide monobody, that is encoded by a cDNA which has been recombined into a plasmid as part of a combinatorial cDNA library. Both plasmids include a promoter which is operable in yeast cells and which has been ligated upstream of the fusion protein coding regions. […] In contrast, where interaction between the monobody of the prey and the nuclear receptor ligand binding domain of the bait occurs (FIG. 4B), a functional transcription factor is reconstituted, resulting in expression of the reporter gene which can be detected by an assay for the reporter gene product. […]

B1: SRC-1: NR-box fragment (residues 570-780) of steroid receptor coactivator-1, natural coactivator of ER (protein)
chain: PSRLNIQPAKAESKDNKEIASILNEMIQSDNSSSDGKPLDSGLLHNNDRLSDGDSKYSQTSHKLVQLLTTTAEQQLRHADIDTSCKDVLSCTGTSNSASANSSGGSCPSSHSSLTERHKILHRLLQEGSPSDITTLSVEPDKKDSASTSVSVTGQVQGNSSIKLELDASKKKESKDHQLLRYLLDKDEKDLRSTPNLSLDDVKVKVEKKEQ
modifications: left off: large carriers
Consider B1, for which, in series [1], the “effect of deletion of the F domain on interaction with the ERα fragments” value is on record as “little effect”. Further, the “binding to different ERα-EF/agonist complexes” value in series [2] is recorded as “bind equally well”.

B2: Clone F2-2#11: pYT45B3F7 library monobody, E2 screen; FG loop RVMDMLL (SEQ ID No: 44) (protein)
chain: MQVSDVPRDLEVVAATPTSLLISWDAPAVTVRYYRITYGETGGNSPVQEFTVPGSKSTATISGLKPGVDYTITVYAVTGRVMDMLLSKPISINYRT
modifications: left off: large carriers
With B2, in series [2] (ERα-EF/agonist complexes), the “sensitivity to the differences among agonist complexes” value is reported as “most sensitive”. The “β-galactosidase activity among those tested” value in series [2] (ERα-EF/agonist complexes, FIGS. 14-16) is “lowest”. For the same molecule, the “binding to different ERα-EF/agonist complexes” value in series [2] is recorded as “different reactivity”.

B3: F2-2#10 (protein)
chain: MQVSDVPRDLEVVAATPTSLLISWDAPAVTVRYYRITYGETGGNSPVQEFTVPGSKSTATISGLKPGVDYTITVYAVTGRVRDLLMSKPISINYRT
modifications: left off: large carriers
Turning to B3, the “Binding Specificity ICI” value in series [3] is given as “weak+”.

B4: Clone 23,31,E31,3,4,5: pYT45B3F7 library monobody, E2 screen; FG loop LRLMLAG (SEQ ID No: 36), wild-type BC loop (protein)
chain: MQVSDVPRDLEVVAATPTSLLISWDAPAVTVRYYRITYGETGGNSPVQEFTVPGSKSTATISGLKPGVDYTITVYAVTGLRLMLAGSKPISINYRT
modifications: left off: large carriers
In the case of B4, in series [1], the “effect of deletion of the F domain on interaction with the ERα fragments” value is reported as “little effect”. Moreover, the “binding to different ERα-EF/agonist complexes” value in series [2] was “bind equally well”.

B5: Clone 33: pYT45B3F7 library monobody, OHT screen; FG loop TWVRPNQ (SEQ ID No: 49) (protein)
chain: MQVSDVPRDLEVVAATPTSLLISWDAPAVTVRYYRITYGETGGNSPVQEFTVPGSKSTATISGLKPGVDYTITVYAVTGTWVRPNQSKPISINYRT
modifications: left off: large carriers
As for B5, the “effect of deletion of the F domain on interaction with ERα” value in series [1] (in the absence of a ligand) is “did not increase”. Besides, in series [1] (in the presence of OHT, FIG. 16D), the “interactions with ERα-E and ERα-EF compared” value is reported as “similar”. Further, the “interaction with ERα-E/raloxifene complex relative to ERα-EF/raloxifene complex” value in series [1] (raloxifene, FIG. 16D) is “significantly greater”.
